Reference: patent US20260109775A1 (Eli Lilly, published 2026)

Assays:
[1] = target: Human CD137 expressed on stable human 293 cells (human, UniProt Q07011 24-255); assay: cell-based or functional assay
[2] = target: T1, Cynomolgus monkey CD137 expressed on stable human 293 cells (cynomolgus monkey); assay: flow cytometry on 293 cells expressing cynomolgus monkey CD137, antibody at 0.5 micrograms/mL, MFI against control IgG
T1 construct: whole, on cells; also called Cyno-CD137
Source text: The ability of the antibodies disclosed herein to bind to cell surface cynomolgus monkey CD137 can be measured using a flow cytometric assay. Cynomolgus monkey CD137 expressing stable cells are generated by transfecting Cyno-CD137 receptor plasmid DNA into human 293 cells (ATCC) using Lipofectamine™ 2000 reagent (Invitrogen™) per manufacturer's protocol. Stable cells are selected using 0.5 micrograms/mL puromycin in Dulbecoo's Modified Eagle's Medium containing 10% fetal bovine serum and 1% GlutaMAX™. For flow cytometry, confluent adherent cells are detached using Gibco® Cell Dissociation Buffer (Life Technologies), blocked in FACS buffer (phosphate buffered saline containing 3% fetal bovine serum) for 1 h at 4° C., and then transferred into a 96-well round-bottom plate at a density of 1×10⁵ cells/well.
After washing in FACS buffer, secondary antibody R-phycoerythrin conjugated goat anti-human IgG, F(ab′)₂ fragment specific antibody (Jackson ImmunoResearch Laboratories) is added at a 1:200 dilution and cells are incubated at 4° C. for 30 minutes. Cells are washed and live/dead cell staining is performed using LIVE/DEAD® Fixable Far Red Dead Cell Stain kit (Life Technologies) per manufacturer's protocol. […] Flow cytometry data is analyzed using FlowJo® Software. Mean fluorescence intensity (MFI) ratio is calculated as the (MFI of Experimental antibody)/(MFI of the control IgG).

Chain of Human CD137 expressed on stable human 293 cells (Q07011 24-255): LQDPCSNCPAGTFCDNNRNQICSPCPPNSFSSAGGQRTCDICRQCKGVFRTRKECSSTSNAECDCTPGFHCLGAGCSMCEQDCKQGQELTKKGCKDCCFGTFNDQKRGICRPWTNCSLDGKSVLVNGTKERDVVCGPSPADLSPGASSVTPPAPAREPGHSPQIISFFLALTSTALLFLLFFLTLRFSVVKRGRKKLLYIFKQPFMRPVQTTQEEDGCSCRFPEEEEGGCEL

B1: Antibody A1 (antibody, human IgG1, kappa)
heavy: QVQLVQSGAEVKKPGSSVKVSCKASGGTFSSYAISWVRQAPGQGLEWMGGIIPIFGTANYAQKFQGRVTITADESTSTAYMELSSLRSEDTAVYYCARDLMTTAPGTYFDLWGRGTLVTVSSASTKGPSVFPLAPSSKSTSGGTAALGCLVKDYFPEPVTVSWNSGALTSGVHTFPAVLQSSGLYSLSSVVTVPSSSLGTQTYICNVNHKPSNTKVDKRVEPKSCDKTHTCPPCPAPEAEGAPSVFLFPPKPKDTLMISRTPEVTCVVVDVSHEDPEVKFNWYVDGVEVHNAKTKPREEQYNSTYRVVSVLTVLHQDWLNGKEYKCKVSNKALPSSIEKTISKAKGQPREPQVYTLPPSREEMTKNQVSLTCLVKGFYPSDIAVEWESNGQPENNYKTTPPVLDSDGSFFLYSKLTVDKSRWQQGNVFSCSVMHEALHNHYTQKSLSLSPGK
light: AIRMTQSPPSLSASVGDRVTITCQASQDIGNSLGWYQQKPGKAPKLVIFDASDLETGVPSRFSGSGSGTDFSLTISSLQPEDFATYYCQQGNSFPLTFGQGTRLEIKRTVAAPSVFIFPPSDEQLKSGTASVVCLLNNFYPREAKVQWKVDNALQSGNSQESVTEQDSKDSTYSLSSTLTLSKADYEKHKVYACEVTHQGLSSPVTKSFNRGEC
- NF-kappaB luciferase reporter, max activity [1]: 63.4%

B2: BMS20H4.9 (antibody, human IgG4 S228P, kappa, V domains shown)
VH: QVQLQQWGAGLLKPSETLSLTCAVYGGSFSGYYWSWIRQSPEKGLEWIGEINHGGYVTYNPSLESRVTISVDTSKNQFSLKLSSVTAADTAVYYCARDYGPGNYDWYFDLWGRGTLVTVSS
VL: EIVLTQSPATLSLSPGERATLSCRASQSVSSYLAWYQQKPGQAPRLLIYDASNRATGIPARFSGSGSGTDFTLTISSLEPEDFAVYYCQQRSNWPPALTFGGGTKVEIKR
notes: Comparator antibody, previously described in U.S. Pat. No. 7,288,638
- MFI ratio [2]: 0.94
- NF-kappaB luciferase reporter, max activity [1]: 115%

B3: Antibody A2 (antibody, human IgG1, kappa)
heavy: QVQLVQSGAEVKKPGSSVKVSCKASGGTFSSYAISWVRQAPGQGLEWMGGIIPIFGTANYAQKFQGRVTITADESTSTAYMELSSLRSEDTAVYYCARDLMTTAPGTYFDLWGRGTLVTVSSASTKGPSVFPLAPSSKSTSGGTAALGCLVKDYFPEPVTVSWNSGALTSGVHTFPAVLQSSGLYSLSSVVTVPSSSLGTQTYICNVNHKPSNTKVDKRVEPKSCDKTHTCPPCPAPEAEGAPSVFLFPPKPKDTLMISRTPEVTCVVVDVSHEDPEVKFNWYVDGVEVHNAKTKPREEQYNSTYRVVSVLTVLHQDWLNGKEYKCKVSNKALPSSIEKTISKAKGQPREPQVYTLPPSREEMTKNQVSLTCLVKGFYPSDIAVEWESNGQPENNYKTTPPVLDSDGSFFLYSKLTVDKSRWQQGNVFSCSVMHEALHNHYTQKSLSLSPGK
light: IRMTQSPPSLSASVGDRVTITCQASQDIGNSLGWYQQKPGKAPKLVIFDASDLETGVPSRFSGSGSGTDFSLTISSLQPEDFATYYCQQGNSFPLTFGQGTRLEIKRTVAAPSVFIFPPSDEQLKSGTASVVCLLNNFYPREAKVQWKVDNALQSGNSQESVTEQDSKDSTYSLSSTLTLSKADYEKHKVYACEVTHQGLSSPVTKSFNRGEC
- NF-kappaB luciferase reporter, max activity [1]: 72.3%
